To fix the notation:
B1: OR4K15 (parent)
chain: GUUAACGGUCAUAGGCCAUGGAAACUAGGAGCACCAUUUCGCUGCCAGUGAAGAAAUGAACAAAGAAAAUCUGGGCCAGGCAGGCAUCAAAAGAAAUAGUCUUGCGCUCAACCAGAAAGUCUGUAAUCAUUUUAAGGGUA

In this data set the parent is B1. The data set is described as follows: self-cleavage, relative activity (ratio to wild type); higher = more cleavage; in vitro, sequencing; the parent is a self-cleaving ribozyme.
As for U103C A134G, the self-cleavage is 1.49. On to A95C A140G, for which the self-cleavage was 0.98. The value for C105A C112U was 0. Regarding U100A U130C, the self-cleavage came out at 0.09. With G106A A118G the figure was 0.02; with G106A A118U, 0; with G106A A110G, 0.01. With C105U U108C, the self-cleavage came to 0.02. As to U102C A117U, the self-cleavage is 0.83. On to U102C A117G, for which the self-cleavage was 2.72. The value for G104A was 0.04; that for G104U was 0.02; that for G104C was 0.02. With U97A U108A the figure was 0.03; with U97A U108C, 0.01. With C101A A117G, the self-cleavage stood at 0.13. With A98G U132A, the self-cleavage came out at 0.41. In the case of A96G G106A, the self-cleavage stood at 0.01. Turning to U102C U122C, the self-cleavage was determined as 1.24. The value for U102C U122A was 1.51. With A96U A114G, the self-cleavage amounted to 0.85. As to U97C A140U, the self-cleavage is 1.02. The value for A98G A110U was 0.31; that for A98G A110G was 0.06; that for U97C U133C was 1.53. Take A98G U130C: the self-cleavage is 0.41.

With U100A U122C, the self-cleavage is 0.28.

For U103C A140G, the self-cleavage turned out to be 1.38.

For U97C U132C, the self-cleavage was 1.45. Take U97C U132A: the self-cleavage stood at 1.28. Regarding A98G U100C, the self-cleavage is 2.04. In the case of A96G U122C, the self-cleavage was determined as 1.38. Regarding U102A A117G, the self-cleavage turned out to be 1.12. Consider U103C A116G, for which the self-cleavage was 0.5. Regarding U103C A116U, the self-cleavage amounted to 0.23.

As to U97C U131C, the self-cleavage turned out to be 0.72.

With U100G U103C, the self-cleavage was 0.09. For A96U U132C, the self-cleavage was determined as 1.95. For the variant U97A U130C, the self-cleavage worked out at 1.59. In the case of A95C G137U, the self-cleavage worked out at 1.17. Consider A96U U139C, for which the self-cleavage is 1.15. The value for U102C C128A was 2.11; that for U102C C128U was 1.62. As to A96G U108A, the self-cleavage came out at 0.02. For A96G U108C, the self-cleavage came out at 0.01. The value for U97A A135G was 1.79; that for U103A A110G was 0.2; that for U103A A110U was 0.62. As to A96G C101U, the self-cleavage was found to be 0.4.

With U103C G138C, the self-cleavage was 0.95. With A98G U120C, the self-cleavage came out at 0.23. For A95G G137A, the self-cleavage stood at 0.66.

For A95G G137U, the self-cleavage turned out to be 2.07. Regarding A95G U130C, the self-cleavage stood at 1.89.

As for U97A A116G, the self-cleavage was found to be 1.19. In the case of A96U A98G, the self-cleavage turned out to be 1.31. The value for U100A A117G was 1.14. With U97C U130C the figure was 0.85; with G99A A134G, 0.6; with A96G A110U, 1.53. As to A96G A110G, the self-cleavage came to 0.12. Regarding U103C U108C, the self-cleavage stood at 0.01.

As for A96G A118G, the self-cleavage was found to be 1.4. In the case of U102A A126G, the self-cleavage is 0.43. On to U97C U108A, for which the self-cleavage stood at 0. Regarding U97C U108C, the self-cleavage was 0.04.

Take C105G G136U: the self-cleavage was found to be 0.02. In the case of A95G A114C, the self-cleavage worked out at 0.06. With A95G A114G, the self-cleavage is 1.17. As for U103A A118G, the self-cleavage came to 0.41. On to U102G U120A, for which the self-cleavage was 0.77. Take C101U U108C: the self-cleavage was determined as 0.01. Turning to A98U A126G, the self-cleavage was determined as 1.86.

A98U A117G: the self-cleavage stood at 1.63. The value for A98G A117U was 0.3; that for U102C U124A was 0.97. Consider A96U A135C, for which the self-cleavage came to 1.11. Consider A96U A135G, for which the self-cleavage was determined as 1.39.

For A96U A135U, the self-cleavage worked out at 0.78.

A98U U127C: the self-cleavage amounted to 1.98.

For A96G G137U, the self-cleavage was 1.8. Turning to A98U U102C, the self-cleavage was found to be 2.78. With U102C C105U the figure was 1.01. For the variant U102C A118U, the self-cleavage came to 1.08. For U102C A118G, the self-cleavage amounted to 1.31. Consider C101A U124C, for which the self-cleavage worked out at 0.08. On to A96G U102C, for which the self-cleavage came to 2.33. A96G U102A: the self-cleavage was found to be 1.52.

With A96G U102G, the self-cleavage is 1.08. For U97A A126U, the self-cleavage was 1.01. As to U97C A118G, the self-cleavage amounted to 0.77. Regarding U97C A118U, the self-cleavage stood at 1.62. Take A98U U131A: the self-cleavage stood at 0.49. For the variant A95G A126U, the self-cleavage was 1.42. Take U102C A110U: the self-cleavage stood at 1.94.

U102A A125G: the self-cleavage was 0.42. As to U103C A114U, the self-cleavage was found to be 0.04. Consider A95G A116G, for which the self-cleavage was 1.88. A95G A116U: the self-cleavage is 0.45. With A95G A118U the figure was 1.09; with A95G A118G, 0.75; with U97A U132A, 2.62. As for U97A U132C, the self-cleavage is 0.95. On to U100A A118G, for which the self-cleavage was determined as 0.47. A96G A140U: the self-cleavage was 1.93.

For U100A U108C, the self-cleavage came to 0.03.

On to A98G U127A, for which the self-cleavage came out at 0.78. Take G106A A135G: the self-cleavage is 0.02. As to A96G A129U, the self-cleavage stood at 1.08. Turning to A96G A129G, the self-cleavage came out at 1.11. The value for A96G U133C was 1.82; that for A98U G104A was 0.12; that for A95G U103A was 1.55. Regarding U97G U103C, the self-cleavage came out at 0.69.

On to A95G U102A, for which the self-cleavage stood at 2.24.

For A95G U102C, the self-cleavage amounted to 2.62. For U100A A140U, the self-cleavage came out at 0.83. With A95G G99A, the self-cleavage was 1.52. For the variant C105U U120C, the self-cleavage stood at 0.05. With U102C C109A the figure was 0.3; with A98C U122C, 2.2; with A95U A117U, 0.55. With U100C G136A, the self-cleavage came out at 2.45. U97A U127C: the self-cleavage is 1.36. With A96G U100A the figure was 0.78; with A98G C109A, 0.03; with A95G G136U, 2.65.

With A96G C113U, the self-cleavage came out at 0.06.

As to A96G A111C, the self-cleavage was 0.01. The value for U103C U120A was 1.55; that for A95G U100A was 1.26. As for A95G U100C, the self-cleavage came out at 2.52. In the case of U102C U132A, the self-cleavage is 2.37. With A98U A135G, the self-cleavage worked out at 2.4.

Turning to U102A U103C, the self-cleavage amounted to 0.12. For U103G G137U, the self-cleavage amounted to 0.05. Consider U103G G137A, for which the self-cleavage is 0.1.

On to U102C A111U, for which the self-cleavage amounted to 0.04.

In the case of A96G, the self-cleavage came to 1.37.

A96U: the self-cleavage was found to be 1.88. The value for A96C was 0.82; that for U97A C101U was 0.49. For the variant U100A A111G, the self-cleavage turned out to be 0.02. With C105A U108C, the self-cleavage was 0.01.

For the variant U97C G136U, the self-cleavage came out at 1.55. Consider G99A, for which the self-cleavage was found to be 0.56. Turning to G99U, the self-cleavage was 0.51. On to A95G C107U, for which the self-cleavage turned out to be 0.01. As to A95G C107A, the self-cleavage came to 0.02. Take U97G U108C: the self-cleavage came out at 0. For A95U A126G, the self-cleavage is 1.55. Turning to A95G A129G, the self-cleavage came to 2.42. With G104A A110U the figure was 0.02; with U102C G106A, 0.02; with A95G G115A, 0.19. As for A96G U124A, the self-cleavage is 0.94.

As for A96U U120C, the self-cleavage was 1.17. As for C105U U139C, the self-cleavage is 0.08. With C105U U122A, the self-cleavage was determined as 0.27. With C105U U122C, the self-cleavage came out at 0.11. With U97A U103A the figure was 0.18; with U97A U103C, 1.63; with U97C A134G, 1.02. Consider U103C U122A, for which the self-cleavage came to 1.14. As to U103C A126G, the self-cleavage is 0.35. Regarding U102C A129U, the self-cleavage worked out at 1.23. With A98G U131C the figure was 0.49.

For the origin of these results see the RNAGym collection of RNA variant scans (doi:10.7554/elife.90254).
